Measurements: patent US8241627B2, “Modified polypeptides stabilized in a desired conformation and methods for producing same” (The Center for Blood Research, Inc., priority 2000, dated 2012)

How the values were obtained:
ICAM-1 [1] = target: T1, ICAM-1 (Homo sapiens, UniProt P05362); experiment: BIAcore binding of soluble αL I-domains to ICAM-1
Experimental: Briefly, recombinant mutant αL I-domain stabilized in the open conformation (K287C/K294C), or recombinant wild-type αL I-domain from amino acid residue G128 to Y307, were cloned into pET11b (Novagen) and expressed in E. coli induced with 1 mM IPTG for 4 hours. The recombinant proteins were purified from inclusion bodies by solubilization of inclusion bodies in 6M guanidine HCl and were refolded by dilution in the presence of 0.1 mM Cu^2+/phenanthrolin to enhance formation of disulfide bonds. Protein was concentrated by ammonium sulfate precipitation, dialyzed, and purified over a monoQ ion-exchange column. […] The recombinant proteins were then purified by gel filtration and concentrated by Centriprep. For BIAcore™ analysis, recombinant ICAM-1, ICAM-2 and ICAM-3 Fc chimeras were immobilized on the BIAcore™ sensor chip by an amine-coupling method. Recombinant αL I-domains were flowed in, and BIAcore™ assays were performed with Tris-buffered saline supplemented with 1 mM MgCl2 or 2 mM EDTA, at a flow rate of 10 μl/minute at 25° C.
Target sequence in this assay (P05362 28-480 limits assumed): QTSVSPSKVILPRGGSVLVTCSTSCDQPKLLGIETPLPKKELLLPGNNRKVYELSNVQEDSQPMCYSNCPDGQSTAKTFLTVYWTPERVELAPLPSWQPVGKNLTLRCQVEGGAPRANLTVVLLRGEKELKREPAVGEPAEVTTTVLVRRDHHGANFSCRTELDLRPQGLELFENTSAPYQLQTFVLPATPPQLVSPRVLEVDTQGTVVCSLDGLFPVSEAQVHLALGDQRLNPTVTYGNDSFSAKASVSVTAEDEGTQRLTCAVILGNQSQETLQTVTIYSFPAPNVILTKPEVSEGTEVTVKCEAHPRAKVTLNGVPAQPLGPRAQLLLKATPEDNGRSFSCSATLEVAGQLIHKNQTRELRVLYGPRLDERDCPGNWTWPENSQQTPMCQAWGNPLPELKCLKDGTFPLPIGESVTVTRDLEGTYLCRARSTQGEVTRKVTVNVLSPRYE

ICAM-1 [2] = target: T1, ICAM-1; experiment: Binding of LFA-1 or isolated I-domain transfectants to immobilized ICAM-1; format: cell-based; parameters: ICAM-1 was purified from human tonsil; from tissue; host or cells: human tonsil
Experimental: Clones of the transfectants that expressed similar levels of cell surface LFA-1, as determined by flow cytometry using monoclonal antibody TS2/4 (FIG. 3B), were tested for their ability to bind to immobilized ICAM-1, as previously described (Lu, C and Springer, T A (1997) J Immunol 159:268-278).
Briefly, ICAM-1 was purified from human tonsil, and coated to 96-well plates as described previously (Lu, C and Springer T A, (1997) J Immunol 159:268-278). Cells were labeled with a florescence dye 2′,7′-bis-(carboxyethyl)-5(and-6)-carboxyfluorescein, acetoxymethyl ester (BCECF-AM), and resuspended to 1×10^6/ml in L15/FBS. 50 μl cell suspension was mixed in ICAM-1 coated wells with an equal volume of L15/FBS in the absence or presence of monoclonal antibody (CBRLFA-1/2, 10 μg/ml). Monoclonal antibodies were used at final concentration of 1:20 hybridoma supernatant, 1:200 ascites, or μg/ml purified IgG. For testing the effect of divalent cations, BCECF-AM-labeled cells were washed 2× with TS buffer, pH7.5 (20 mM Tris, pH 7.5, 150 mMNaCl) containing 5 mM EDTA, followed by 2 washes with TS buffer, pH7.5. Cells were then resuspended to 5×10^5/ml in the TS buffer, pH7.5 supplemented with 1 mM MgCl2/CaCl2, MgCl2, MnCl2 mM EDTA, and 100 μl cell suspension was added to ICAM-1 coated wells. After incubation at 37° C. for 30 minutes, unbound cells were washed off on a Microplate Autowasher (Bio-Tek Instruments, Winooski, Vt.). The fluorescence content of total input cells and the bound cells in each well was quantitated on a Fluorescent Concentration Analyzer (IDEXX, Westbrook, Me.). The bound cells were expressed as a percentage of total input cells per sample well.
For generating stable K562 transfectants that express the I-domain on the surface, 20 μg of SspI-linearized pcDNA3.1/Hygro(+) containing the sequences encoding the I domain and the PDGFR transmembrane domain was used to transfect K562 cells by electroporation as described above. Transfectants were selected for resistance to 100 μg/ml hygromycin B, and were further subcloned by cell sorting and limiting dilution; clones that expressed similar levels of surface wild-type and mutant I domain-PDGFR were selected for functional studies. Stable cell lines were maintained in RPMI medium 1640 supplemented with 10% FBS and 100 μg/ml hygromycin B. Cell surface expression of the isolated I-domains was determined by flow cytometry using antibody TS1/22 to the I-domain (FIG. 7). Two clones from each transfectant were selected and tested for binding to immobilized ICAM-1, and similar results were obtained with each of the two clones (FIG. 8A).
If the constitutive ligand binding activity of mutant K287C/K294C is due to the formation of a disulfide bond between the introduced C287 and C294, disruption of the disulfide bond with a reducing agent would abolish ligand binding ability of the mutant. Accordingly, the transfectants were treated with the reducing agent DTT (10 mM) in L15/FBS containing Mg^2+ and Ca^2+, and the ability of transfectants to bind to ICAM-1 was assessed.
Furthermore, the effect of divalent cations on ligand binding of the isolated I-domains expressed on the surface of K562 transfectants was tested. The binding reactions were performed in HEPES/NaCl/glucose (20 mM HEPES, pH 7.5, 140 mM NaCl, 2 mg/ml glucose) supplemented with 1 mM […], 1 mM Mg^2+, or 1 mM EDTA.
Target sequence in this assay (P05362 28-532): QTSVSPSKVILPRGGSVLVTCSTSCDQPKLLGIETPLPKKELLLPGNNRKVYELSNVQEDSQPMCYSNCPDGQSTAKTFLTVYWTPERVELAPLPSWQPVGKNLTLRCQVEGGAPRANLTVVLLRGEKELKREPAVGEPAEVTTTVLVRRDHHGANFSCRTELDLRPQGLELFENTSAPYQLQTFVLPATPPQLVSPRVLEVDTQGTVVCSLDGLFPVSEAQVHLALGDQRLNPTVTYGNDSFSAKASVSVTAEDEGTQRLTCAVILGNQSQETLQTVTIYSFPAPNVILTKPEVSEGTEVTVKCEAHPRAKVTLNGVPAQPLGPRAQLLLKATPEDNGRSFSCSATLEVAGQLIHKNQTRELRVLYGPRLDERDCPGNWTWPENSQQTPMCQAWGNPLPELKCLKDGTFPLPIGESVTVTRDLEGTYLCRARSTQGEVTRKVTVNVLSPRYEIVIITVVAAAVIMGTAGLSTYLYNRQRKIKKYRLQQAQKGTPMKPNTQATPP

[3] = system: T-lymphocytes in peripheral lymph node high endothelial venules; experiment: Intravital microscopy of lymphocyte behaviour in peripheral lymph node high endothelial venules; format: in vivo; conditions: mouse
Experimental: Moreover, the ability of the open I-domain mutants to inhibit LFA-1 function in vivo was tested by visualizing microcirculation in the peripheral lymph node (LN) with intravital microscopy. Briefly, a small bolus (20-50 µl) of LN cell suspensions from […] mice were retrogradely injected through a femoral artery catheter and visualized in the subiliac LN by fluorescent epi-illumination from a video-triggered xenon arc stroboscope. After recording control […] cell behavior in the absence of 1-domain, the mouse was pretreated by intra-arterial injection of 1-domain (10 µg/g of weight) 5 minutes before T^GFP cell injection. All scenes were recorded on videotape and off-line analysis was done. The rolling fraction was calculated as percentage of rolling cells amount the total number of TGFβ cells that entered a venule. The sticking (firm adhesion) fraction was determined as the percentage of T^GFP cells becoming firmly adherent for >20 seconds in the number of T^GFP cells that rolled in a venule. Results were semi-quantitatively scored as follows: −: 0%, .+−.: 0-5%, +: 5-20%, ++: 20-40%, +++: 40-60%, ++++: 60-80%, +++++:80-100%.

Kd (ICAM-1 [1]; Scatchard plots using data at steady states, read-out: KD, interaction of αL I-domains with ICAM-1): 1350 µM
Kon, interaction of αL I-domains with ICAM-1 (ICAM-1 [1]; calculated by Koff/KD): 2220 M⁻¹ s⁻¹
Koff, interaction of αL I-domains with ICAM-1 (ICAM-1 [1]; curve fitting of dissociation phase, 1:1 binding model): 3.00 s⁻¹
binding of K562 cells expressing isolated I-domains to immobilized ICAM-1 (ICAM-1 [2]; I-domain on cell surface via PDGFR transmembrane domain): did not bind
effect of Mn2+ or Mg2+ on ligand binding of isolated I-domains (ICAM-1 [2]; K562, 1 mM Mn2+ or Mg2+): did not activate ligand binding
effect of DTT treatment on binding to ICAM-1 (ICAM-1 [2]; K562 transfectants, DTT 10 mM in L15/FBS): did not affect binding
B1: wild-type I-domain: wild-type αL I-domain, soluble recombinant or expressed on K562 surface via PDGFR transmembrane domain (protein)
chain: GNVDLVFLFDGSMSLQPDEFQKILDFMKDVMKKLSNTSYQFAAVQFSTSYKTEFDFSDYVKRKDPDALLKHVKHMLLLTNTFGAINYVATEVFREELGARPDATKVLIIITDGEATDSGNIDAAKDIIRYIIGIGKHFQTKESQETLHKFASKPASEFVKILDTFEKLKDLFTELQKKIY
Fraction transmigration ([3]; intra-arterial I-domain 10 μg/g): ± (.+−.: 0-5%)
Fraction Rolling ([3]; intra-arterial I-domain 10 μg/g 5 minutes before T-GFP cell injection): +++ (+++: 40-60%)
Fraction firm adhesion ([3]; intra-arterial I-domain 10 μg/g, adherent >20 seconds): ++ (++: 20-40%)
